Columns and labels:
Assay in all cases: spectrophotometric hydrolysis, initial rates, Hanes-Woolf
Assay type in all cases: biochemical, Yersinia mollaretii
Conditions in all cases: 50 mM MES pH 6.0, 30°C
[1] = tested on: C[C@@H](O)[C@H]1C(=O)N2C(C(=O)O)=C(S[C@@H]3CN[C@H](C(=O)Nc4cccc(C(=O)O)c4)C3)[C@H](C)[C@H]12
[2] = tested on: C[C@@H](O)[C@H]1C(=O)N2C(C(=O)O)=C(S[C@@H]3CN[C@H](C(=O)N(C)C)C3)[C@H](C)[C@H]12
[3] = tested on: C[C@@H](O)[C@H]1C(=O)N2C(C(=O)O)=C(S[C@@H]3CN[C@H](CNS(N)(=O)=O)C3)[C@H](C)[C@H]12
[4] = tested on: C[C@@H](O)[C@H]1C(=O)N2C(C(=O)[O-])=C(SC3Cn4cnc[n+]4C3)[C@H](C)[C@H]12
[5] = tested on: C[C@@H](O)[C@H]1C(=O)N2C(C(=O)O)=C(SCCN=CN)C[C@H]12

Substance: YEM-1 (Yersinia mollaretii ATCC 43969)
- kcat [1]: >400 s⁻¹
- kcat [2]: >400 s⁻¹
- kcat [3]: >100 s⁻¹
- kcat [4]: >16 s⁻¹
- Km [5]: 160 µM
- kcat [5]: 480 s⁻¹

From article doi:10.1101/2020.01.29.926220v1
